Target: Flag-Axin1 (mouse)
Assay: SPR; BIAcore 8K, CM5 chip; Flag-Axin1 immobilised by amine coupling (20 μg/mL, sodium acetate pH 4.5); analytes 25-400 nM, 30 μL/min, 120 s association, 300 s dissociation; step of the Axin1 self-association not told

Row | Molecule | Kd [nM]
1 | Flag-Axin1 (natural protein) | 147
2 | Flag-TRIM15 (natural protein) MPATPSLKVVHELPACTLCAGPLEDAVTIPCGHTFCRLCLPALSQMGAQSSGKILLCPLCQEEEQAETPMAPVPLGPLGETYCEEHGEKIYFFCENDAEFLCVFCREGPTHQAHTVGFLDEAIQPYRDRLRSRLEALSTERDEIEDVKCQEDQKLQVLLTQIESKKHQVETAFERLQQELEQQRCLLLARLRELEQQIWKERDEYITKVSEEVTRLGAQVKELEEKCQQPASELLQDVRVNQSRCEMKTFVSPEAISPDLVKKIRDFHRKILTLPEMMRMFSENLAHHLEIDSGVITLDPQTASRSLVLSEDRKSVRYTRQKKSLPDSPLRFDGLPAVLGFPGFSSGRHRWQVDLQLGDGGGCTVGVAGEGVRRKGEMGLSAEDGVWAVIISHQQCWASTSPGTDLPLSEIPRGVRVALDYEAGQVTLHNAQTQEPIFTFTASFSGKVFPFFAVWKKGSCLTLKG | 37.8

Source: paper PMC12859064
